Laboratory results taken from paper PMC7641127, “MCL1 binds and negatively regulates the transcriptional function of tumor suppressor p73” (Cell Death & Disease, 2020).
No end group written: not given here.

Biological target: T1, recombinant MCL1 (human, UniProt Q07820 1-350)
T1 construct: MCL1, human; Uniformly 15N-labelled for NMR; also called 15N MCL1; source: E. coli BL21 (DE3), purified (nickel chromatography, gel filtration)
Experiment: fluorescence polarisation; competitive FPA: 50 nM recombinant MCL1, 10 nM F-BAK, titration of unlabeled p73 peptide or p73DBD, 1× PBS pH 7.4
Details: both partners purified

T1 sequence (Q07820 whole entry): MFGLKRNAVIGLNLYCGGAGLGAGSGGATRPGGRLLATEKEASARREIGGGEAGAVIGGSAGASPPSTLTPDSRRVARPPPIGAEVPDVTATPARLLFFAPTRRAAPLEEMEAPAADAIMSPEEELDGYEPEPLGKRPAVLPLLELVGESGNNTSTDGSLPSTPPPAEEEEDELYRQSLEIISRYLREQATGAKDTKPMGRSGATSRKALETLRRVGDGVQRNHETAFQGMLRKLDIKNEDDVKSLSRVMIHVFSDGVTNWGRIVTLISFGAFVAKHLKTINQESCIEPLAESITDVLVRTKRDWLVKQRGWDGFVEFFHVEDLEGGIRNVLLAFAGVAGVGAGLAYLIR

IC50	Binder
> 10 µM	DEDTYYLQVRG-NH2 [p73TD-derived peptide β1]
> 10 µM	PQPLVDSYRQQQQLLQR [p73TD-derived peptide α2]
